Test results as given in PMC3589417.

Target: 14-3-3ε (UniProt P62258)
Test: anti-FLAG co-IP of HA-TAK1, immunoblot
Conditions: reference: wild type

UniProt P62258, sequence (P62258 whole entry, looked up): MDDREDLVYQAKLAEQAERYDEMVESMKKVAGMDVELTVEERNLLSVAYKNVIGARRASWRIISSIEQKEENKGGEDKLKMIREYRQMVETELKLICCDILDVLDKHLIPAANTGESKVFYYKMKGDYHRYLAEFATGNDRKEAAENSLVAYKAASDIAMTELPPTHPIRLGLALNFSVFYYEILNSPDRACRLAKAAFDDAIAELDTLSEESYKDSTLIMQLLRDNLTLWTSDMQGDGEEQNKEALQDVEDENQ

## TAK1 (MAP3K7) (from UniProt O43318-2) T187A
Sites T187
  binding against the reference: weaker

## TAK1 (MAP3K7) (from UniProt O43318-2) S192A
Sites S192
  binding against the reference: weaker

## TAK1 (MAP3K7) (from UniProt O43318-2) T184A
Sites T184
  binding against the reference: weaker
